Results from patent publication US20230406885A1, “CYCLIC PEPTIDES FOR TRAPPING INTERLEUKIN-1 BETA” (MERCK SHARP & DOHME LLC, priority 2022, published 2023).
*1 amine or outer side, *2 acyl side, *3 side chain or, on linkers, in order; H or OH if unused. [ ]: non-standard residue; d: D form. 3AzaPhe4AcPip = (S)-3-(6-(4-acetylpiperazin-1-yl)pyridin-3-yl)-2-aminopropanoic acid, CC(=O)N1CCN(c2ccc(C[C@H](N[*:1])C(=O)[*:2])cn2)CC1; Trp(4-Cl)(βS-Me) = C[C@@H](c1c[nH]c2cccc(Cl)c12)[C@H](N)C(=O)O; Pro(trans-4-NH2) = O=C([C@@H]1C[C@@H](N[*:3])CN1[*:1])[*:2]; Trp(βS-Me,4-F) = C[C@@H](c1c[nH]c2cccc(F)c12)[C@H](N)C(=O)O; Bip(4'-COOH) = N[C@@H](Cc1ccc(-c2ccc(C(=O)O)cc2)cc1)C(=O)O; 1Nal(3S-Me) = C[C@@H](c1cccc2ccccc12)[C@H](N)C(=O)O; Phe(4-COOH) = N[C@@H](Cc1ccc(C(=O)O)cc1)C(=O)O; Phe(4-CH2NH2) = NCc1ccc(C[C@H](N)C(=O)O)cc1; Phe(3-NH2) = Nc1cccc(C[C@H](N)C(=O)O)c1; Phe(4-NH2) = Nc1ccc(C[C@H](N)C(=O)O)cc1; hTyr = N[C@@H](CCc1ccc(O)cc1)C(=O)O; 4Pal = N[C@@H](Cc1ccncc1)C(=O)O; dDab = NCC[C@@H](N)C(=O)O; Orn = NCCC[C@H](N)C(=O)O; dNMeA = CN[C@H](C)C(=O)O; Dap = NC[C@H](N)C(=O)O

target: Recombinant human IL-1β (BioLegend 579404) (human, UniProt P01584 117-269); assay: cell-based or functional assay

Binder | MRC5 IC50 [nM]
cyclo([Bip(4'-COOH)]W[Phe(4-COOH)]G[Pro(trans-4-NH2)][Trp(4-Cl)(βS-Me)]D[dNMeA]G[Bip(4'-COOH)][Orn]S[dA][hTyr]) (SMILES C[C@@H]1C(=O)NCC(=O)N[C@@H](Cc2ccc(-c3ccc(C(=O)O)cc3)cc2)C(=O)N[C@@H](CCCN)C(=O)N[C@@H](CO)C(=O)N[C@H](C)C(=O)N[C@@H](CCc2ccc(O)cc2)C(=O)N[C@@H](Cc2ccc(-c3ccc(C(=O)O)cc3)cc2)C(=O)N[C@@H](Cc2c[nH]c3ccccc23)C(=O)N[C@@H](Cc2ccc(C(=O)O)cc2)C(=O)NCC(=O)N2C[C@H](N)C[C@H]2C(=O)N[C@@H]([C@@H](C)c2c[nH]c3cccc(Cl)c23)C(=O)N[C@@H](CC(=O)O)C(=O)N1C) [SEQ ID NO: 49] | 0.402
cyclo([3AzaPhe4AcPip]W[Phe(4-COOH)]G[Pro(trans-4-NH2)][1Nal(3S-Me)]D[dNMeA]G[Bip(4'-COOH)]W[Dap][dA][hTyr]) (SMILES CC(=O)N1CCN(c2ccc(C[C@@H]3NC(=O)[C@H](CCc4ccc(O)cc4)NC(=O)[C@@H](C)NC(=O)[C@H](CN)NC(=O)[C@H](Cc4c[nH]c5ccccc45)NC(=O)[C@H](Cc4ccc(-c5ccc(C(=O)O)cc5)cc4)NC(=O)CNC(=O)[C@@H](C)N(C)C(=O)[C@H](CC(=O)O)NC(=O)[C@H]([C@@H](C)c4cccc5ccccc45)NC(=O)[C@@H]4C[C@@H](N)CN4C(=O)CNC(=O)[C@H](Cc4ccc(C(=O)O)cc4)NC(=O)[C@H](Cc4c[nH]c5ccccc45)NC3=O)cn2)CC1) [SEQ ID NO: 5] | 0.674
cyclo([Bip(4'-COOH)]W[Phe(4-COOH)]G[Pro(trans-4-NH2)][Trp(4-Cl)(βS-Me)]D[dNMeA]G[Bip(4'-COOH)][Phe(3-NH2)]S[dA][hTyr]) (SMILES C[C@@H]1C(=O)NCC(=O)N[C@@H](Cc2ccc(-c3ccc(C(=O)O)cc3)cc2)C(=O)N[C@@H](Cc2cccc(N)c2)C(=O)N[C@@H](CO)C(=O)N[C@H](C)C(=O)N[C@@H](CCc2ccc(O)cc2)C(=O)N[C@@H](Cc2ccc(-c3ccc(C(=O)O)cc3)cc2)C(=O)N[C@@H](Cc2c[nH]c3ccccc23)C(=O)N[C@@H](Cc2ccc(C(=O)O)cc2)C(=O)NCC(=O)N2C[C@H](N)C[C@H]2C(=O)N[C@@H]([C@@H](C)c2c[nH]c3cccc(Cl)c23)C(=O)N[C@@H](CC(=O)O)C(=O)N1C) [SEQ ID NO: 50] | 0.52
cyclo([Bip(4'-COOH)]W[Phe(4-COOH)]G[Pro(trans-4-NH2)][Trp(4-Cl)(βS-Me)]D[dNMeA]G[Bip(4'-COOH)][Phe(4-CH2NH2)]S[dA][hTyr]) (SMILES C[C@@H]1C(=O)NCC(=O)N[C@@H](Cc2ccc(-c3ccc(C(=O)O)cc3)cc2)C(=O)N[C@@H](Cc2ccc(CN)cc2)C(=O)N[C@@H](CO)C(=O)N[C@H](C)C(=O)N[C@@H](CCc2ccc(O)cc2)C(=O)N[C@@H](Cc2ccc(-c3ccc(C(=O)O)cc3)cc2)C(=O)N[C@@H](Cc2c[nH]c3ccccc23)C(=O)N[C@@H](Cc2ccc(C(=O)O)cc2)C(=O)NCC(=O)N2C[C@H](N)C[C@H]2C(=O)N[C@@H]([C@@H](C)c2c[nH]c3cccc(Cl)c23)C(=O)N[C@@H](CC(=O)O)C(=O)N1C) [SEQ ID NO: 51] | 0.32
cyclo([Bip(4'-COOH)]W[Phe(4-COOH)]G[Pro(trans-4-NH2)][Trp(4-Cl)(βS-Me)]D[dNMeA]G[Bip(4'-COOH)][Phe(4-NH2)]S[dA][hTyr]) (SMILES C[C@@H]1C(=O)NCC(=O)N[C@@H](Cc2ccc(-c3ccc(C(=O)O)cc3)cc2)C(=O)N[C@@H](Cc2ccc(N)cc2)C(=O)N[C@@H](CO)C(=O)N[C@H](C)C(=O)N[C@@H](CCc2ccc(O)cc2)C(=O)N[C@@H](Cc2ccc(-c3ccc(C(=O)O)cc3)cc2)C(=O)N[C@@H](Cc2c[nH]c3ccccc23)C(=O)N[C@@H](Cc2ccc(C(=O)O)cc2)C(=O)NCC(=O)N2C[C@H](N)C[C@H]2C(=O)N[C@@H]([C@@H](C)c2c[nH]c3cccc(Cl)c23)C(=O)N[C@@H](CC(=O)O)C(=O)N1C) [SEQ ID NO: 52] | 0.454
cyclo([Bip(4'-COOH)]W[Phe(4-COOH)]G[Pro(trans-4-NH2)][Trp(4-Cl)(βS-Me)]D[dNMeA]G[Bip(4'-COOH)]W[Dap][dA][hTyr]) (SMILES C[C@@H]1C(=O)NCC(=O)N[C@@H](Cc2ccc(-c3ccc(C(=O)O)cc3)cc2)C(=O)N[C@@H](Cc2c[nH]c3ccccc23)C(=O)N[C@@H](CN)C(=O)N[C@H](C)C(=O)N[C@@H](CCc2ccc(O)cc2)C(=O)N[C@@H](Cc2ccc(-c3ccc(C(=O)O)cc3)cc2)C(=O)N[C@@H](Cc2c[nH]c3ccccc23)C(=O)N[C@@H](Cc2ccc(C(=O)O)cc2)C(=O)NCC(=O)N2C[C@H](N)C[C@H]2C(=O)N[C@@H]([C@@H](C)c2c[nH]c3cccc(Cl)c23)C(=O)N[C@@H](CC(=O)O)C(=O)N1C) [SEQ ID NO: 53] | 0.0418
cyclo([Bip(4'-COOH)]W[Phe(4-COOH)]G[Pro(trans-4-NH2)][Trp(4-Cl)(βS-Me)]D[dNMeA]G[Bip(4'-COOH)]WG[dDab][hTyr]) (SMILES C[C@@H]1C(=O)NCC(=O)N[C@@H](Cc2ccc(-c3ccc(C(=O)O)cc3)cc2)C(=O)N[C@@H](Cc2c[nH]c3ccccc23)C(=O)NCC(=O)N[C@H](CCN)C(=O)N[C@@H](CCc2ccc(O)cc2)C(=O)N[C@@H](Cc2ccc(-c3ccc(C(=O)O)cc3)cc2)C(=O)N[C@@H](Cc2c[nH]c3ccccc23)C(=O)N[C@@H](Cc2ccc(C(=O)O)cc2)C(=O)NCC(=O)N2C[C@H](N)C[C@H]2C(=O)N[C@@H]([C@@H](C)c2c[nH]c3cccc(Cl)c23)C(=O)N[C@@H](CC(=O)O)C(=O)N1C) [SEQ ID NO: 54] | 0.0692
cyclo([Bip(4'-COOH)]W[Phe(4-COOH)]G[Pro(trans-4-NH2)][Trp(4-Cl)(βS-Me)]E[dNMeA]G[Bip(4'-COOH)]WG[dDab][hTyr]) (SMILES C[C@@H]1C(=O)NCC(=O)N[C@@H](Cc2ccc(-c3ccc(C(=O)O)cc3)cc2)C(=O)N[C@@H](Cc2c[nH]c3ccccc23)C(=O)NCC(=O)N[C@H](CCN)C(=O)N[C@@H](CCc2ccc(O)cc2)C(=O)N[C@@H](Cc2ccc(-c3ccc(C(=O)O)cc3)cc2)C(=O)N[C@@H](Cc2c[nH]c3ccccc23)C(=O)N[C@@H](Cc2ccc(C(=O)O)cc2)C(=O)NCC(=O)N2C[C@H](N)C[C@H]2C(=O)N[C@@H]([C@@H](C)c2c[nH]c3cccc(Cl)c23)C(=O)N[C@@H](CCC(=O)O)C(=O)N1C) [SEQ ID NO: 55] | 0.0493
cyclo([Bip(4'-COOH)]W[Phe(4-COOH)]G[Pro(trans-4-NH2)][Trp(4-Cl)(βS-Me)]N[dNMeA]G[Bip(4'-COOH)]WG[dDab][hTyr]) (SMILES C[C@@H]1C(=O)NCC(=O)N[C@@H](Cc2ccc(-c3ccc(C(=O)O)cc3)cc2)C(=O)N[C@@H](Cc2c[nH]c3ccccc23)C(=O)NCC(=O)N[C@H](CCN)C(=O)N[C@@H](CCc2ccc(O)cc2)C(=O)N[C@@H](Cc2ccc(-c3ccc(C(=O)O)cc3)cc2)C(=O)N[C@@H](Cc2c[nH]c3ccccc23)C(=O)N[C@@H](Cc2ccc(C(=O)O)cc2)C(=O)NCC(=O)N2C[C@H](N)C[C@H]2C(=O)N[C@@H]([C@@H](C)c2c[nH]c3cccc(Cl)c23)C(=O)N[C@@H](CC(N)=O)C(=O)N1C) [SEQ ID NO: 56] | 0.0207
cyclo([Bip(4'-COOH)]W[Phe(4-COOH)]G[Pro(trans-4-NH2)][Trp(4-Cl)(βS-Me)]Q[dNMeA]G[Bip(4'-COOH)]WG[dDab][hTyr]) (SMILES C[C@@H]1C(=O)NCC(=O)N[C@@H](Cc2ccc(-c3ccc(C(=O)O)cc3)cc2)C(=O)N[C@@H](Cc2c[nH]c3ccccc23)C(=O)NCC(=O)N[C@H](CCN)C(=O)N[C@@H](CCc2ccc(O)cc2)C(=O)N[C@@H](Cc2ccc(-c3ccc(C(=O)O)cc3)cc2)C(=O)N[C@@H](Cc2c[nH]c3ccccc23)C(=O)N[C@@H](Cc2ccc(C(=O)O)cc2)C(=O)NCC(=O)N2C[C@H](N)C[C@H]2C(=O)N[C@@H]([C@@H](C)c2c[nH]c3cccc(Cl)c23)C(=O)N[C@@H](CCC(N)=O)C(=O)N1C) [SEQ ID NO: 57] | 0.0873
cyclo([Bip(4'-COOH)]W[Phe(4-COOH)]G[Pro(trans-4-NH2)][Trp(βS-Me,4-F)]A[dNMeA]G[Bip(4'-COOH)]KL[dA][hTyr]) (SMILES CC(C)C[C@@H]1NC(=O)[C@H](CCCCN)NC(=O)[C@H](Cc2ccc(-c3ccc(C(=O)O)cc3)cc2)NC(=O)CNC(=O)[C@@H](C)N(C)C(=O)[C@H](C)NC(=O)[C@H]([C@@H](C)c2c[nH]c3cccc(F)c23)NC(=O)[C@@H]2C[C@@H](N)CN2C(=O)CNC(=O)[C@H](Cc2ccc(C(=O)O)cc2)NC(=O)[C@H](Cc2c[nH]c3ccccc23)NC(=O)[C@H](Cc2ccc(-c3ccc(C(=O)O)cc3)cc2)NC(=O)[C@H](CCc2ccc(O)cc2)NC(=O)[C@@H](C)NC1=O) [SEQ ID NO: 58] | 0.247
cyclo([Bip(4'-COOH)]W[Phe(4-COOH)]G[Pro(trans-4-NH2)][Trp(βS-Me,4-F)]D[dNMeA]G[Bip(4'-COOH)][4Pal]L[dA][hTyr]) (SMILES CC(C)C[C@@H]1NC(=O)[C@H](Cc2ccncc2)NC(=O)[C@H](Cc2ccc(-c3ccc(C(=O)O)cc3)cc2)NC(=O)CNC(=O)[C@@H](C)N(C)C(=O)[C@H](CC(=O)O)NC(=O)[C@H]([C@@H](C)c2c[nH]c3cccc(F)c23)NC(=O)[C@@H]2C[C@@H](N)CN2C(=O)CNC(=O)[C@H](Cc2ccc(C(=O)O)cc2)NC(=O)[C@H](Cc2c[nH]c3ccccc23)NC(=O)[C@H](Cc2ccc(-c3ccc(C(=O)O)cc3)cc2)NC(=O)[C@H](CCc2ccc(O)cc2)NC(=O)[C@@H](C)NC1=O) [SEQ ID NO: 59] | 0.0362
